Source: patent publication US20240374603A1, “PHARMACEUTICAL PREPARATION, PREPARATION METHOD THEREFOR AND USE THEREOF” (COHERENT BIOPHARMA (SUZHOU) LIMITED, priority 2021, published 2024)
*1 amine or outer side, *2 acyl side, *3 side chain or, on linkers, in order; H or OH if unused. Where a SMILES comes first, the peptide text is derived from it. Bridges are numbered along the chain shown (N, C = ends). Roman numbers before positions name the chains, in order. [ ]: non-standard residue; d: D form. The star is where a group is joined. ξ: configuration not given here. Hexanoyl(6-succinimido-3yl) = O=C1CC([*:1])C(=O)N1CCCCCC(=O)[*:2]; Pteroyl = Nc1nc2ncc(CNc3ccc(C(=O)*)cc3)nc2c(=O)[nH]1; Dolaproine(all-ξ) = COC(C(C)C(=O)[*:2])C1CCCN1[*:1]; X1 = CCC(C)C(C(CC(=O)[*:2])OC)N(C)[*:1]; γGlu = O=C(O)[CH](CCC(=O)[*:2])N[*:1]; PABC = O=C(OCc1ccc(N[*:1])cc1)[*:2]; Cit = NC(=O)NCCC[CH](N)C(=O)O; NMeV = CN[CH](C(=O)O)C(C)C; X2 = CC(N*)C(O)c1ccccc1

Experiments:
[1] = Final prescription and process confirmation, stability at 25° C. and 40° C.; format: physicochemical; details: final prescription (Example 7); for % Moisture / % Total impurity / Re-dissolution time s: freeze-dried; for pH value: re-dissolution pH
Description: In view of the results of the prescription screening experiment, the prescription process confirmation experiment was carried out to investigate the stability of the final prescription.

[2] = pH confirmation in freeze-dried form, stability at 30° C. for 1 month; format: physicochemical; details: pH range of 6.9 to 7.7, 30° C. for 1 month
Description: An aqueous solution containing LDC10B (5 mg/mL), mannitol (40 mg/mL), sucrose (10 mg/mL) and tromethamine (0.765 mg/mL) was prepared, and the pH was adjusted to 6.9, 7.3 and 7.7 with dilute hydrochloric acid, respectively; the resulting solutions were filtered and sub-packaged into vials, half of a stopper was pressed into the vial, freeze-drying was performed, and the vials were capped. The stability of each sample was investigated at 30° C. for 1 month.

CCC(C)C(C(CC(=O)N1CCCC1C(OC)C(C)C(=O)NC(C)C(O)c1ccccc1)OC)N(C)C(=O)C(NC(=O)C(C(C)C)N(C)C(=O)OCc1ccc(NC(=O)C(CCCNC(N)=O)NC(=O)C(NC(=O)CCCCCN2C(=O)CC(SCC(NC(=O)CCC(NC(=O)c3ccc(NCc4cnc5[nH]c(N)nc(=O)c5n4)cc3)C(=O)O)C(=O)NC(CCCCN)C(=O)NC(CCC(=O)O)C(=O)NC(Cc3ccccc3)C(=O)NC(CC(C)C)C(=O)NC(Cc3cnc[nH]3)C(=O)N3CCCC3C(=O)NC(CO)C(=O)NC(CCCCN)C(=O)NC(C(=O)NC(CC(=O)O)C(=O)NC(CC(C)C)C(=O)N3CCCC3C(=O)NC(CCCNC(=N)N)C(=O)O)C(C)C)C2=O)C(C)C)cc1)C(C)C (stereo not shown) [LDC10B] (I: {Pteroyl-γGlu}-CKEFLHPSKVDLPR-OH / II: V[Cit][PABC][NMeV]V[X1][Dolaproine(all-ξ)]-X2; linker I:1-II:N via Hexanoyl(6-succinimido-3yl); configuration not given here)
% Moisture ([1]; 25° C., 0 day): 0.42%
% Total impurity ([1]; 25° C., 0 day): 0.44%
Re-dissolution time s ([1]; 25° C., 0 day): 160 s
% Moisture ([1]; 25° C., 1 month): 1.79%
% Total impurity ([1]; 25° C., 1 month): 0.51%
Re-dissolution time s ([1]; 25° C., 1 month): 154 s
% Moisture ([1]; 25° C., 2 months): 1.97%
% Total impurity ([1]; 25° C., 2 months): 0.61%
Re-dissolution time s ([1]; 25° C., 2 months): 114 s
% Moisture ([1]; 25° C., 3 months): 2.19%
% Total impurity ([1]; 25° C., 3 months): 0.81%
Re-dissolution time s ([1]; 25° C., 3 months): 174 s
% Moisture ([1]; 25° C., 6 months): 2.62%
% Total impurity ([1]; 25° C., 6 months): 1.21%
Re-dissolution time s ([1]; 25° C., 6 months): 128 s
% Moisture ([1]; 40° C., 0 day): 1.2%
% Total impurity ([1]; 40° C., 0 day): 0.33%
Re-dissolution time s ([1]; 40° C., 0 day): 148 s
% Moisture ([1]; 40° C., 5 day): 1.0%
% Total impurity ([1]; 40° C., 5 day): 0.48%
Re-dissolution time s ([1]; 40° C., 5 day): 139 s
% Moisture ([1]; 40° C., 10 day): 1.2%
% Total impurity ([1]; 40° C., 10 day): 0.54%
Re-dissolution time s ([1]; 40° C., 10 day): 118 s
% Moisture ([1]; 40° C., 30 day): 1.8%
% Total impurity ([1]; 40° C., 30 day): 0.69%
Re-dissolution time s ([1]; 40° C., 30 day): 135 s
pH value ([1]; 25° C., 0 day): 7.4
pH value ([1]; 25° C., 1 month): 7.5
pH value ([1]; 25° C., 2 months): 7.2
pH value ([1]; 25° C., 3 months): 7.4
pH value ([1]; 25° C., 6 months): 7.3
pH value ([1]; 40° C., 0 day): 7.4
pH value ([1]; 40° C., 5 day): 7.1
pH value ([1]; 40° C., 10 day): 7.3
pH value ([1]; 40° C., 30 day): 7.4
quality of the freeze-dried preparation [2]: stable
